The target in data set [1] is GST‐tagged W105,107A variant of recombinant P. falciparum enolase (not stated | Plasmodium falciparum). Nature of the data set: SEC; proteins with the GST tag; Superdex‐200 Increase 10/300 GL, 1 mg protein in 0.5 mL buffer; 50 mM Tris‐HCl, 150 mM NaCl, 5 mM MgCl2 pH 7.5.
Data set [2] shares this target.
Data set [3] has as its target GST‐tagged W105,107K variant of recombinant P. falciparum enolase (not stated | Plasmodium falciparum). Nature of the data set: SEC; proteins with the GST tag; Superdex‐200 Increase 10/300 GL, 1 mg protein in 0.5 mL buffer; 50 mM Tris‐HCl, 150 mM NaCl, 5 mM MgCl2 pH 7.5.
Data set [4] has the same target.
Data set [5] deals with the molecule itself. Nature of the data set: cell-based or functional assay.
Data set [6] deals with the molecule itself. Nature of the data set: SEC; proteins without the GST tag; Superdex‐200 HiLoad 16/600, 1–2 mg of protein in 2 mL buffer; 50 mM Tris‐HCl, 150 mM NaCl, 5 mM MgCl2 pH 7.5; dimer to monomers. (In general: SEC sorts molecules by how far they enter the pores of the column.)

The source of these data is paper PMC5494301, “Functions of tryptophan residues in EWGWS insert of Plasmodium falciparum enolase” (FEBS Open Bio, 2017).

One may read the stoichiometry N as the number of molecules, sites or subunits per partner or assembly.

Changes are numbered by the printed parent chain.

Take “GST‐tagged W105,107A variant of recombinant P. falciparum enolase (enzyme)”: the stoichiometry N in data set [1] came to 2. For the same molecule, the enolase activity, V max (% of GST‐rPfeno) (% of GST‐rPfeno) in data set [2] was determined as 22.
“GST‐tagged W105,107K variant of recombinant P. falciparum enolase (enzyme)”: the stoichiometry N in data set [3] worked out at 2. Also, in data set [4], the enolase activity, V max (% of GST‐rPfeno) (% of GST‐rPfeno) worked out at 33.

B1: W105,107A variant of recombinant P. falciparum enolase, GST tag removed (enzyme, Plasmodium falciparum, UniProt Q27727 1-446, looked up)
chain: MAHVITRINAREILDSRGNPTVEVDLETNLGIFRAAVPSGASTGIYEALELRDNDKSRYLGKGVQKAIKNINEIIAPKLIGMNCTEQKKIDNLMVEELDGSKNEAGASKSKLGANAILAISMAVCRAGAAPNKVSLYKYLAQLAGKKSDQMVLPVPCLNVINGGSHAGNKLSFQEFMIVPVGAPSFKEALRYGAEVYHTLKSEIKKKYGIDATNVGDEGGFAPNILNANEALDLLVTAIKSAGYEGKVKIAMDVAASEFYNSENKTYDLDFKTPNNDKSLVKTGAQLVDLYIDLVKKYPIVSIEDPFDQDDWENYAKLTAAIGKDVQIVGDDLLVTNPTRITKALEKNACNALLLKVNQIGSITEAIEACLLSQKNNWGVMVSHRSGETEDVFIADLVVALRTGQIKTGAPCRSERNAKYNQLLRIEESLGNNAVFAGEKFRLQLN
For B1, the “enolase activity, V max (% WT rPfeno)” value in data set [5] is 4 % of WT‐rPfeno.

B2: recombinant P. falciparum enolase, wild type (WT‐rPfeno), GST tag removed (enzyme, Plasmodium falciparum, UniProt Q27727 1-446, looked up)
chain: B1 chain with A105W, A107W
notes: Plasmodium falciparum enolase (Pfeno), UniProt Q27727, 446 amino acids; also called Plasmodium falciparum enolase; source: E. coli BL21 (DE3), pGEX4T1, purified on glutathione Sepharose, GST tag cut off with thrombin
For B2, in data set [6], the “stoichiometry N” value amounted to 2.
